# Measurements reported in patent US20100279930A1, “HUMAN PANCREATIC POLYPEPTIDE (HPP) ANALOGUES AND THEIR EFFECTS ON FEEDING BEHAVIOUR” (priority 2007, published 2010).
# Test system: Male C57BL/6 mice
# Assay: In vivo food intake experiments in mice (half-life in the blood judged from appetite suppression)
# Design: species or system mouse
# Conditions: comparator native human PP; judged from food intake reduction in mice (4-8 h, 0-24 h, 4:1 or 24:1 ratio)
# Method: In Vivo Food Intake Experiments
# Male C57BL/6 mice (20-30 g) were used for all mouse experiments. Mice were individually housed in IVC cages. Animals were randomized by weight and fasted overnight for 16 hrs before intraperitoneal injection at 9 am. All peptide solutions were prepared freshly the morning of the study and injected as 100 ul. Food intake was measured at 1, 2, 3, 4, 6, 8 and 24 hours post injection. The peptide was dosed at 30 nmol/kg, 50 nmol/kg, 100 nmol/kg, 120 nmol/kg, 150 nmol/kg, 300 nmol/kg, 600 nmol/kg or 1000 nmol/kg depending on the activity. In each case, a control of saline and a control of unmodified human Pancreatic Polypeptide was carried out. All statistics are calculated using a one-way ANOVA with Dunnett's post-test or one-way ANOVA with Bonferroni post-test.
# A control of saline was used.
# FIG. 2 and in the comparative graph of FIG. 3. […] It is hypothesized that that is as a possible result of stronger activity at the receptor and longer activity.
# The mouse is a good model for degradation rates in humans, irrespective of the fact that the receptors for PP in mice are different from the human receptor.
molecule,measurement,value
4055860 (synthetic hPP analogue peptide) CAPLEPVYPGDNATPEQMAQYAADLRRYINMLTRPRYCAPLEPVYPGDNATPEQMAQYAADLRRYINMLTRPRY,half-life in the blood compared with native human PP,longer half life
